Data as given in the nanobody polyreactivity screen of Harvey et al. (2022).

Assay: yeast display, Sf9 membrane polyspecificity reagent, FACS + sequencing; frameworks hold sequencing errors
Outline: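 Nanobodies from a synthetic yeast display library (Saccharomyces cerevisiae BJ5465), induced 36–48 hours with galactose, were stained 1 hour at 4 °C with 10% biotinylated, detergent-solubilized Sf9 membrane reagent, enriched on streptavidin microbeads, then FACS-sorted. Anti-HA (expression) and streptavidin (reagent binding) fluorescence set low and high (top ~1%) gates. Polyreactivity labels come from the gate of origin. Genes were colony-PCR amplified, MiSeq 2 × 250 sequenced and filtered by CDR length.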

Sequence | polyreactivity (PSR sort gate)
QVQLVESGGGLVQAGGSHRLSCAASGYIFGYNAMGWYRQAPGKEREFVAAIRFSGGSTYYADSVKGRFTISRDNAKNTVYLQMNSMKPEDTAVYYCAKRGYGHLIPIAYEYWGQGTQVTVSS | low polyreactivity
QVHLVESGGGLVQAGGSLRLSCAASGYTFYANAMGWYRQAPGKEREFVASITWSGGSTYYADSVKGRFTISRDNAKNTVYLQKNSLKPEDTAVYYCAAESWFKYDYWGQGTQVTVSS | low polyreactivity
QVQLVESGGGLVQAGGSLRLSCAASGLIFSYYAMGWYRQAPGKETELVAGITRSGASTYADSVKGRFTISRDNAKNTVYLQMNSLKPEDTAVYYCAADWHYLGWFWQYSKYDYWGQGTQVTVSS | high polyreactivity
QVQLVESGGGLVQAGGSLRLSCAASGRTFYYYAMGWYRQAPGKERELVAAIRWSTGSTYYADSVKGRFTISRDNAKNTVYLQMNSLKPEDTAVYYCAADTWYIQWGYYWGQGTQVTVSS | low polyreactivity
QGQLGESGGGLVQAGGSLRLSCAASGSIFPEYDMGWYRQAPGNERELDAAISWSGGSTYYADSVKGRFTISRANAKNTVSLQRNSLKPVDTAVYYCNRVPSWRIDYDYWGQGTQVSVSS | low polyreactivity
QDQLVDSGGGLVQAGGSLRLICAASGRIFHCYAMGWYRQAPGKERELVAAIRASGGRTYYADSVKGRFTISRDNAKNTVYVQMNSLKPEDPAVYYCGADSVKYGGDYWGQGTQVTVSS | high polyreactivity
QVQLVESGGGLVQAGGSLRLSCAASGRTFSYYAMGWYRQAPGKERELVAAITSSGGRTTYADSVKGRFTISRDNAKNTVYLQMNSLKPEDTAVYYCAARHTYQGPGTYPMYYWGQGTQVTVSS | high polyreactivity
QVQLVESGGGLVQAGGSLRLSCAASGSTFYVYDMGWYRQAPGKERELVAAITRRGGSTYYADSVKGRFTISRDNAKNTVYLQMNSLKPVDTAVYYCAARTAYYPTHRYYWGQGTQVTVSS | high polyreactivity
QVQLVESVGGLDQAGGSLRLSCAASGSTFSLYTIGWYRQAPGKERELVASISRGGGSTYYADSVKGRFTISRDNAKNTVYLQMNSLKPEDTAVYYCASGTLYFYSHNPEDDFDYWGQGTQVTVSS | high polyreactivity
QVQLVESGGGLVQAGGTLRLSCAASGRIFFSYAMGWYRQAPGKERELVAAITYSGGSTYYADSVKGRFTISRDNAKNTVYLQKNSLKPEDTAVYYCNAELYEKYDYWGQGTQVTLSS | low polyreactivity
QVQLVESGGGLVQAGGSLRLSCAASGLIFVWYAMGWYRQAPGKERELVAAISWSGGSTYYADSVKGRFTISRDNAKTTVYLQMNSLKPEDTAVYYCATDPFGYSYLLVDYNYWGQGTQVTVSS | low polyreactivity
QVQLVESGGGLVQAGGSLRLSCASSGRIFGIYAMGWYRQAPGKESELVARITGGGSTNYADSVKGRFTISRDNAKNTVYLQMNSLKPEDTAVYYCAATVRRIVGNITRYDYWGQGTQVTVSS | low polyreactivity
QVQLVESVGGLVQAGGSLRLSCAASGRTLGGNAMGWYRQAPGKERELVAAITNSASTYADSVKGRFTISRDNAKNTVYLQMNSLKPEDTAVYYCNAPDPSDQHGDYWGQGTQVTVSS | low polyreactivity
QVQLVESGAGLVQAGGSLRLSCAASGSTLVYNDMGWYRQAPGKDREFVAAIRSNDGSTYYADSVKGRFTISRDNAKNTVYLQMNSLKPEDTAVYYCAKDSRNVYWDYGYWGQGTQVTVSS | low polyreactivity
QDQLVESGGGLVQAGGSLRLSCAASGLIYSYYALGWSRQATGKERELVASISRSGGSTYYADSVKGRFTISRDNAKNTVYLQMNILKPEDPAVYYCDAPGYYRTSRMDYWGQGTQVTVSS | high polyreactivity
QVQLVESGGGLVQAGGSLRLSCAASGRIFWYYVMGWYRQAPGKEREFVASISSGGSTYYADSVKGRFTISRDNAKNTVYLQMNSLKPEDTAVYYCNAYVYGQRVWYDYWGQGTQVTVSS | high polyreactivity
QVQLVESGGGLVQAGGSLRLSCAASGRTSARYGMGWYRQAPGKERELVASIRRSGDSTYYADSVKGRFTISRDNAKNTVYLQLNSLKPEDTAVYYCAAGGKQGKRDYWGQGTQVTVSS | low polyreactivity
QVQLVESGGGLVQAGGRLRLSCAASGITFPGNVMGWSRHAPGKERELVAAISSTGSTNYADSVKGRFTISRDNAKNTVYLQMNSLKPEDTAVYYCAARFWYDYRHYDYWGQGTQVTVSS | low polyreactivity
QVQLVESGGGLVQAGGSLRLSCAASGRTFLIYAMGWYRQAPGKERELVAAITSGGRTKYADSVKGRFTISRDNAKNTVYLQMNSLKPEDTAVYYCAAESNRLRYYYWGQGTQVTVSS | high polyreactivity
QVQLVESGGGLVQAGGSLRLSCAASGLILPYYTMGWYRQAPGTERELVAAITWGGDSTYYADSVKGRFTISRDNAKNTVYLQMNRLKPEDTAVFYCAAYPQRRFYWQYRYDYWGQGTQVTGSS | high polyreactivity
QVQLVESGGGLVQAGGSLRLSCSASGRISNAMGWYRQAPGKERELVATINSGASTNYADSVKGRFTISRDNAKNTVYLQMNSLKPEDTAVYYCNVAYVYGSFRRRPMGYLGQGTQVTVSS | high polyreactivity

Sequence | polyreactivity (PSR sort gate)
QVQLVESGGGLVQAGGSLRLSCAASGIIFTINAMGWYRQAPGKERELVAAISWGTGTTYYADSVKGRFTISRDNAKNTVYLQINSLKPEDTAVYYCAADGYDTYGYWGQGTQVTVSS | low polyreactivity
QVHLVESGGGLVQAGGSLRLSCAASGITFRRNTMGWYRQAPGKERELVATISWRGGNTFYADSVKRRFTISRDNAKNTVYLQMHSLKPEDTAVYYCAVAFKGPSGYQYDYWGQGTQVTVSS | high polyreactivity
QVQLVESGGGLVQAGGSLRLSCAASGITFGYYAMGWYRQAPGKERENVAAITRRGGSTYYADSVKGRFTISRDNAKNTVYLQMNSLKPEDTAVYYCAADSYRYWFIEDNYWGQGTQVTVSS | high polyreactivity
QVQLVESGGGLVQAGGSLRLSCAASGSIFYSNVMGWYRQAPGQERELVARITDAGSTNYADSVKGRFTISRDNAKHTVYFQMNSLKPEDTAVYYCNARLVIYTFDYWGQGTLVTVSS | low polyreactivity
QVQLVESGGGLVQAGGSLRLSCAASGRTFFVYAMGWYRQAPGKERELVASIRWRGSTYYADSVKGRFTISRDNAKNTVYLKMNSLKPEDTAVYYCAARYPYELGFDYWGQGTQVTVSS | low polyreactivity
QDQLVESGGGLVQAGGSLRLSCAASGFIFADYAMGWYRQATGKERELVAAISWGGGSTYYADSVKGRFTISRDIAKNTVYLQMNSLKPEDTAVYYCAAANPGSEYDYWGQGTQVTVSS | high polyreactivity
QLQLVESGGGLVQAGGSLRLSCAASGSIFVVNAMGWYRQAPGKERELVAAISRGGITNYADSVKGRFTISRDNAKNTVYLQMNILKPEDTAVYYCNARGSRWVKPERDYWGQGTQVTVSS | low polyreactivity
QVQLVESARGLVQAGGCLRLSCAASGSTFHQNAMGWSRQAPGKERELVAAITSGGSTYYADSVKGRFTISRDNAKNTGYLQMNSLKPEDTAVYYCNALTHVRSKRWRFRSEHDYWGQGTQVTVSS | high polyreactivity
QVQHVESGGGLVQARGSLRLSCAASGFIIWGYAMGWYRQAPGKERELVAAISSSGGSTYYADSVKGRFTISRDNAKNTVYLQMNSLKPEDTAVYYCAAVRYQAYSGDGGYWGQGTQVTVSS | low polyreactivity
QVQLVESGGGLVQAGGSLRLSCAASGITFKYYVMGWYRQAPGKERELVARITRRSGSTYYADSVKGRFTISRDNAKNTVYLQMNSLKPEDTAVYYCAASPHSRSDYGYWGQGTQVTVSS | high polyreactivity
QVQLVESGGGLVQAGGSLRLSCAASGIILRYYVMGWYRQAPGKERELVAAITSRGGSTYYADSVKGRFTISRDNAKITVYLQMNSLKPEDTAVYYCAAGYRNVNTFDYWGQGTQVTVSS | high polyreactivity
QVQLVESGGGLVQAGGSLRLSCAASGITFSVYAMGWYRQAPGKERELVAAISGSGGSTYYADSVKGRFTISRDNAKNTVYLQMNSLKPEDTAVYYCAARLAQKYSPTRYNYWGQGTQVTVSS | high polyreactivity
QVQLVESGGGLVHAGVSLRISCAASGRIFKQYAMGWYRQAPGNERELVAAISVRGGITYYADSVKGRFTISRYHAKNTVYLQMKSLNPEDTAVYYCAKRSYRNHTYDYWGQGTQVTVSS | low polyreactivity
QVQLVESRGGLVQARGSLRLSSAASGFIFNANAMGCYRPAPGKESELVAAIDDGDSTYADSVKGRFTISRDNAKNTVYLQMNSLKPEDTAVYYCAVDGGEFSSYGYWGEGTQVTVSS | low polyreactivity
QVQLVESGGGLDQAGGSLRLSCAASGLIFIQNAMGWYRQAPGKEREFVAAISVSGRTYYADSVKGRFTISRDNAKNTVYLQMNSLKPEDTAVYYCAARSRSWRQRYGDFDYWGQGTQVTVSS | low polyreactivity
QVQLVESGGGLVQAGGSLRLSCAASGYTFYVYAMGWYRQAPGKERELVADISTSDGSTYYADSVKGRFTISRDNAKNTVYLQMNSLKPEDTAVYYCNTDGSHGLYDWFWPANNDDWGQGTQVSVSS | low polyreactivity
QVQLVESGGGLVQAGGSLRLSCAASGRIFYLYGMGWYRQAPGKERELVAGITGSGGNTYYADSVKGRFTISRDNAMNTVYLQMNSLKPEDTAVYYCIARFRARPRMGYWGQGTQVTLSS | high polyreactivity
QVHLVESGGGLVQAGVSLRLSCPASGIIFWFYAMGWYRQSPGKERQLVAAISGDGDSTYYADSVKGRFTISRDNAKNTVYLQMNSLKPEDTAVYYCAAEWDPVFATDEDDYWGQRTQVTVSS | low polyreactivity
QVQLVESWGGLVQAGGRLRLSCAASGIIFHRNAMGWYRQAPGKQRELVAAISERGGSTYYADSVKGRFTISRDNAKNTVYLQMNSLKPEDTAVYYCIADGFYRGGYWGQGTQVTVSS | low polyreactivity
QVQLVESGGGLVQAGGRLRLSCAASGFIFSYYTMGCYRQAPGKERELVAAIRSSGGSTYADSVKGRFTISRDNAKNTVYLQMNSLNPEDTAVYYGAGGYYWNEPLYWYGDFDYWGQGTQVTVSS | high polyreactivity
